Assay results as given in publication PMC11229316, “Insights into the molecular mechanism of ParABS system in chromosome partition by HpParA and HpParB” (Nucleic Acids Research, 2024).
Substitutions are numbered along the chain they refer to. No end group written: not given here.

Assays:
[1] = target: T1, HpParAD41A, ATP hydrolysis-deficient mutant of Helicobacter pylori ParA (Helicobacter pylori, UniProt O25759, D41A); assay: MST; 5-FAM-Ahx-labeled peptide (200 nM) mixed 1:1 with 16 serial dilutions of unlabeled HpParA or HpParAD41A (300 μM); 20 mM Tris-HCl pH 8.0, 5% glycerol, 200 mM NaCl, 50 mM imidazole, 5 mM MgCl2, 0.05% Tween20; 25°C; the results speak of ParA-DNA complexes; settings: both partners purified
T1 construct: also called HpSojD41A; source: recombinant, grown in Luria-Bertani medium, induced with IPTG, purified as HpParA (Ni-NTA, SEC)
T1 sequence: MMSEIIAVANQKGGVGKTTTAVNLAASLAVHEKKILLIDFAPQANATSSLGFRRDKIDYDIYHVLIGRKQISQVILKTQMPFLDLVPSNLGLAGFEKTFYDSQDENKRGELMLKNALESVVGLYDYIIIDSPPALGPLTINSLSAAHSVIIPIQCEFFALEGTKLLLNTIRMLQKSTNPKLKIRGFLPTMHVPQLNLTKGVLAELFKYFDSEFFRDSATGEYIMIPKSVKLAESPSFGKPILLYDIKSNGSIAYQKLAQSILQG

[2] = target: T2, HpParA (HpSoj);HpParB (HpSpo0J) (Helicobacter pylori;Helicobacter pylori, UniProt O25759;O25758 1-264;1-290, |); assay: EMSA; no CTP; NAC1 with Cy3-parS (N3) also in complex; FP: 20 mM Tris-HCl pH 8.0, 175 mM NaCl, 5 mM MgCl2, 10% glycerol, 1 mM ATP or CTP, 5 nM DNA, room temperature; EMSA: 20 mM Tris-HCl pH 8.0, 50 mM NaCl, 11 mM imidazole, 5 mM MgCl2, 10% glycerol, +/- 2 mM CTP, 37 C, gel at 4 C; settings: protein: recombinant;recombinant; tags: His (Ni-NTA purified); label: 5' Cy5 in EMSA; FP label Cy3 or Cy5 not specified per DNA; blunt
T2 sequence 1: T1 sequence with A41D
T2 sequence 2: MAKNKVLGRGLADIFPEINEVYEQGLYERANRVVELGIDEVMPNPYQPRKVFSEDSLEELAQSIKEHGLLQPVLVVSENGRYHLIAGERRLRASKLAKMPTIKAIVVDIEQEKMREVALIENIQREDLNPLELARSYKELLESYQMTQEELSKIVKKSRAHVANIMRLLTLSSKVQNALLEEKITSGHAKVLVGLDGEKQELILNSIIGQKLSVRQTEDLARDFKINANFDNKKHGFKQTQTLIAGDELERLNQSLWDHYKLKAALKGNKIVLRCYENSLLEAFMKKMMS

[3] = target: HpParAD41A;HpParB (HpSpo0J) (Helicobacter pylori;Helicobacter pylori, UniProt O25759;O25758 1-264;1-290, D41A|); assay: EMSA; no CTP; NAC3 with Cy3-parS (N3) also in complex; FP: 20 mM Tris-HCl pH 8.0, 175 mM NaCl, 5 mM MgCl2, 10% glycerol, 1 mM ATP or CTP, 5 nM DNA, room temperature; EMSA: 20 mM Tris-HCl pH 8.0, 50 mM NaCl, 11 mM imidazole, 5 mM MgCl2, 10% glycerol, +/- 2 mM CTP, 37 C, gel at 4 C; settings: protein: recombinant;recombinant; tags: His (Ni-NTA purified); label: 5' Cy5 in EMSA; FP label Cy3 or Cy5 not specified per DNA; blunt
HpParB (HpSpo0J) [4] = target: T3, HpParB (HpSpo0J) (Helicobacter pylori, UniProt O25758 1-290); assay: fluorescence polarization; 1 mM CTP, 5 mM Mg2+; FP: 20 mM Tris-HCl pH 8.0, 175 mM NaCl, 5 mM MgCl2, 10% glycerol, 1 mM ATP or CTP, 5 nM DNA, room temperature; EMSA: 20 mM Tris-HCl pH 8.0, 50 mM NaCl, 11 mM imidazole, 5 mM MgCl2, 10% glycerol, +/- 2 mM CTP, 37 C, gel at 4 C; settings: protein: recombinant, tags: His (Ni-NTA purified), chain copies: 2, blunt
T3 sequence: T2 sequence 2

HpParA (HpSoj) = target: T4, HpParA (HpSoj) (Helicobacter pylori, UniProt O25759 1-264); assay: fluorescence polarization; 1 mM ATP, 5 mM Mg2+; FP: 20 mM Tris-HCl pH 8.0, 175 mM NaCl, 5 mM MgCl2, 10% glycerol, 1 mM ATP or CTP, 5 nM DNA, room temperature; EMSA: 20 mM Tris-HCl pH 8.0, 50 mM NaCl, 11 mM imidazole, 5 mM MgCl2, 10% glycerol, +/- 2 mM CTP, 37 C, gel at 4 C; settings: protein: recombinant; tags: His (Ni-NTA purified); label: 5' Cy5 in EMSA; FP label Cy3 or Cy5 not specified per DNA; blunt
T4 sequence: T1 sequence with A41D

HpParAD41A = HpParAD41A (Helicobacter pylori, UniProt O25759 1-264, D41A); assay: as above; settings: protein: recombinant; tags: His (Ni-NTA purified); label: 5' Cy5 in EMSA; FP label Cy3 or Cy5 not specified per DNA; blunt
Ct-HpParB = target: T5, Ct-HpParB (Helicobacter pylori, UniProt O25758 1-240); assay: EMSA; no CTP; FP: 20 mM Tris-HCl pH 8.0, 175 mM NaCl, 5 mM MgCl2, 10% glycerol, 1 mM ATP or CTP, 5 nM DNA, room temperature; EMSA: 20 mM Tris-HCl pH 8.0, 50 mM NaCl, 11 mM imidazole, 5 mM MgCl2, 10% glycerol, +/- 2 mM CTP, 37 C, gel at 4 C; settings: protein: recombinant; chain copies: 2; label: none (GelRed stain); blunt
T5 sequence: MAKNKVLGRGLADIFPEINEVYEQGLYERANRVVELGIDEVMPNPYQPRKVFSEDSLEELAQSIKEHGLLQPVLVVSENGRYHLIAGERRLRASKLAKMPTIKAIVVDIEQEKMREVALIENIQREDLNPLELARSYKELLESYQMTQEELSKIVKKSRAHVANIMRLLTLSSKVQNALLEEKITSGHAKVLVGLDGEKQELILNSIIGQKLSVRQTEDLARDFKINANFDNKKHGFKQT

HpParB (HpSpo0J) [5] = target: T3, HpParB (HpSpo0J); assay: fluorescence polarization; no CTP, 5 mM Mg2+; FP: 20 mM Tris-HCl pH 8.0, 175 mM NaCl, 5 mM MgCl2, 10% glycerol, 1 mM ATP or CTP, 5 nM DNA, room temperature; EMSA: 20 mM Tris-HCl pH 8.0, 50 mM NaCl, 11 mM imidazole, 5 mM MgCl2, 10% glycerol, +/- 2 mM CTP, 37 C, gel at 4 C; settings: protein: recombinant; tags: His (Ni-NTA purified); chain copies: 2; label: 5' Cy3 (FP dye assignment inferred from EMSA); blunt

B1: HpParBN10, N-terminal peptide of HpParB (residues 1-10) (peptide)
peptide: MAKNKVLGRG
modifications: not fully specified (N-terminus); also: labeled with 5-FAM-Ahx fluorophore, site not given here
notes: residues 1-10 of Helicobacter pylori Spo0J/ParB (HP1138); The methods describe only the 5-FAM-Ahx-labelled peptide; also called HpSpo0JN10; source: synthetic peptide, bought: MDBio, inc
Kd [1]: 5300 ± 1100 nM

B2: Cy5/Cy3-labeled nsDNA 24-bp (dsDNA)
DNA 1: TCCTATGAATTGCTATGGCAAGCG
DNA 2: CGCTTGCCATAGCAATTCATAGGA
binding result [2]: binds | binding result [3]: binds | Kd (HpParB (HpSpo0J) [4]; label: 5' Cy5 in EMSA, FP label Cy3 or Cy5 not specified per DNA): 145 ± 28.8 nM | Kd (HpParA (HpSoj)): 117 ± 15.2 nM | Kd (HpParAD41A): 149 ± 18.1 nM

B3: nsDNA 24-bp (dsDNA)
DNA 1: TCCTATGAATTGCTATGGCAAGCG
DNA 2: CGCTTGCCATAGCAATTCATAGGA
binding result (Ct-HpParB): no binding

B4: Cy3-parS 24-bp (dsDNA)
DNA 1: AGGGTGTTCCACGTGAAACAGGGA
DNA 2: TCCCTGTTTCACGTGGAACACCCT
Kd (HpParB (HpSpo0J) [5]): 63.4 ± 5.6 nM | Kd (HpParB (HpSpo0J) [4]; label: 5' Cy3 (FP dye assignment inferred from EMSA)): 232 ± 42 nM
